The target in this experiment is TRIB3 (tribbles pseudokinase 3), purified protein (UniProt Q96RU7). Put plainly: FP.
TRIB3 (tribbles pseudokinase 3), purified protein, sequence (Q96RU7 whole entry): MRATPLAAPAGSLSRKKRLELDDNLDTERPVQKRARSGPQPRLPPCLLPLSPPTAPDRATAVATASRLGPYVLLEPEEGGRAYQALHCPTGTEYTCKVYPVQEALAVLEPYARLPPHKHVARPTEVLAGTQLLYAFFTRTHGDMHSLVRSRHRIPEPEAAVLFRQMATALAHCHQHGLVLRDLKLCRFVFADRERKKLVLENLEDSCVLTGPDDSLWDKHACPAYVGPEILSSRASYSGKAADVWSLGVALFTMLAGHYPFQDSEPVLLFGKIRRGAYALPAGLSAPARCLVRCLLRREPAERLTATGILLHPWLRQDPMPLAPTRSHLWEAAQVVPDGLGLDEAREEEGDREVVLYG

As usually defined, the IC50 is the concentration that inhibits the measured activity by half. Lower therefore signals greater potency in that assay. Broadly, the Ki is the dissociation constant of the complex between target and ligand, obtained from inhibition or displacement. The low end stands for tighter binding, the high end for weaker binding. In the case of “SAH-JGZ4, stapled JGZ peptide (from UniProt P00533)”, the IC50 came out at 90.3 nM and the Ki worked out at 27.7 nM.
